Measured values taken from US11466255B2, “Methods and compositions for converting non-endocrine pancreatic tissue into insulin-producing cells” (UNIVERSITY OF MIAMI, priority 2015, dated 2022).

Experiments:
[1] = reconstituted solution; cited from earlier work
stz-treated mice = conditions: systemic BMP-7; cited from earlier work
pure islet preparations = assay: Pure islet preparations treated with BMP-7 (colony formation); format: cell-based, human; conditions: n=3
ALK3+ cells from hNEPT = assay: BMP-7 response of ALK3-enriched / ALK3+-sorted fraction; format: cell-based, human
Description: Magnetic bead-based methods (Miltenyi) were used for the enrichment of ALK3+ cells from hNEPT. Both enriched and negative fractions are subsequently plated and treated with BMP-7 or left untreated (controls).
The identity of sorted cells is confirmed by IF, and aliquots are cultured in adherent conditions. Single sorted pancreatic cells are notoriously difficult to culture in plastic, which is addressed by using a combination of Matrigel®-coated plates and fully defined media [STEMPRO® (Thermofisher Scientific, Grand Island, N.Y.) or Kubota's Medium® (PhoenixSongs Biologicals Branford, Conn.)]^8,29,48,49 Matrigel® is used to grow multipotent pancreatic cells^50,51. Colonies from dissociated ALK3^+ cells sorted from fresh hNEPT are readily grown in these conditions, and resemble those obtained from the MPD without sorting. The typical “ring” morphology described by others^50,51 is observed when plating ALK3^+ cells in 3D conditions or fibroblast feeder cells.

[2] = system: stz-treated diabetic mice; assay: Systemic BMP-7 in stz-treated diabetic CD1 mice; format: in vivo, mouse; conditions: BMP-7 500 μg/kg IP daily for 30 days, stz 200 mg/kg
Description: Systemic BMP-7 (500 μg/kg) is administered to CD1 mice by means of intraperitoneal (IP) injection daily for 30 days. This dose is within the range reported for rodents in other BMP administration settings^18,67-69, and is refined in subsequent preclinical experiments. Acute diabetes is induced by a single injection of stz (200 mg/kg) prior to BMP-7 treatment. Controls receive saline by the same route. […] Similar doses^18 are effective at reversing kidney fibrosis. Ten animals/group are used. Half of the animals in each group receive BrdU in the water. Mice are euthanized 30 days after initiation of treatment, or earlier if diabetes reversal is observed. Glycemia is monitored daily at the same time, right before injection. IPGTTs and determination of PI/I ratios is done at 14 and 30 days. Upon euthanasia, the pancreas and other organs are harvested and analyzed by a pathologist to establish if there are tumorigenic or otherwise toxic effects associated with the treatment. The pancreas is also studied by IF in search of potential β-cell/endocrine cell neogenesis and/or signs of β-cell/endocrine cell proliferation (BrdU-treated animals) when compared to saline-treated controls. […] Relative quantification of β-cell/endocrine cell neogenesis are done using normalized total insulin quantification and the imaging techniques described in Example 4 and^17. […]

B1: BMP-7: 35 kDa homodimeric protein of the TGF-β superfamily; FDA-approved agent; human mature chain SEQ ID NO:1/2 (protein, listed as Homo sapiens)
chain: IRSTGSKQRSQNRSKTPKNQEALRMANVAENSSSDQRQACKKHELYVSFRDLGWQDWIIAPEGYAAYYCEGECAFPLNSYMNATNHAIVQTLVHFINPETVPKPCCAPTQLNAISVLYFDDSSNVILKKYRNMVVRACGCH
modifications: homodimer; human mature chain of BMP-7 (NCBI Reference Sequence NM_001719.2) comprising peptide from 293-431
Question: What does the source list for B1?
Answer: time reconstituted BMP-7 is active [1]: 2 to 7 days; effect on hyperglycemia of stz-treated mice (stz-treated mice): corrected the hyperglycemia; colony formation (pure islet preparations): failed to give rise to colonies; increase in insulin expression vs. non-BMP-7 treated controls (ALK3+ cells from hNEPT; ALK3+-sorted cells, preliminary qRT-PCR): 10^3 fold; response in terms of C-peptide production (ALK3+ cells from hNEPT; magnetic bead ALK3-enriched fraction, only this fraction responds): BMP-7-responsive; glycemia vs. controls [2]: glycemic improvements
